From the DeepSol protein solubility set

test: soluble on expression in E. coli; label from the status in PepcDB or PDB records

Soluble on expression in E. coli, soluble:
MERYNTMSGKKTESSDNIVLYPGLVKRLIEKGMEALKEKDAKKALTMFEQAEQYDAEPSQILFGKALCYVELGKLDDAVLLTDQMLRNDIGNYYDILQIHLSLLVQLGRYDEVVEMLDVVLAEDRLPAKHAESFYQLLHFSRQMVEDSPTYIKEPLSEELDLKETYDDINERDSLEQWHFLQQMRKHNNPADIRTLLSFVESESNDPALRSYALHMLTMHKVEKRVRIRKFDQEAEVIPVELNADEQQRFGNAVVEQLEARLAVENPSLFKMAEQLWWQFLYALYPFTPKPEQKDLWAGAVHVAVHESNGLPFDEEEIAGMYNCRVQQMLEKGEEIHFVETETFQGISGHSFRMAGDPLEHHHHHH
MESFRFDPAGNLLDNAPAPDGHQNDSLLGNLLSQYAGRHYRYDSRGNLVEKRVNGSLTRLEWDSHSRLSRLIAPDGQRTDYHYDPLGRRIAKISQGQATLYGWDGDVLAFETRDEEAVHYLFEPDSFVPLAQVHTDAIRGVKVPAWSQHHPYDPDKDPLRQPAPEPEAPKAVYYYHTDHLGTPQALTDEQGLLALEMDYQAWGQAREVIADAAGKAGIRNPFRFQGQYHDDESGLHYNRHRYYDPEIGRFISRDPIGLKGGYNLFAYAPNTIEWVDPFGLTKLRETDPKARSLSNVQTRCWYLREESKIGYQIDCTKPIKQQARQAARLRNEARIRARLLMADREKAIALHQSDPNLTFKELMALKENKKGLTGKDAYQDIVDSASKSRQSVNKALLEGVDCDKVLEGILEHHHHHH
MESKAENRKKILQMLKNFSDYEKRRQNKDVLKQLTASSKWKSAKKIALYMSMPIEFNLTELFDQSDDKEILIPKCLPERQMIFAKYDKENLVRSKFGLLEPKSEIAVEPDFILVPGLIWNDEGYRIGFGGGYYDRYLANFEGSTASVLYDFQKMDFEAESHDIAVQELFIGRKNNEFLEHHHHHH
MESLASLYKNHIATLQERTRDALARFKLDALLIHSGELFNVFLDDHPYPFKVNPQFKAWVPVTQVPNCWLLVDGVNKPKLWFYLPVDYWHNVEPLPTSFWTEDVEVIALPKADGIGSLLPAARGNIGYIGPVPERALQLGIEASNINPKGVIDYLHYYRSFKTEYELACMREAQKMAVNGHRAAEEAFRSGMSEFDINIAYLTATGHRDTDVPYSNIVALNEHAAVLHYTKLDHQAPEEMRSFLLDAGAEYNGYAADLTRTWSAKSDNDYAQLVKDVNDEQLALIATMKAGVSYVDYHIQFHQRIAKLLRKHQIITDMSEEAMVENDLTGPFMPHGIGHPLGLQVHDVAGFMQDDSGTHLAAPAKYPYLRCTRILQPGMVLTIEPGIYFIESLLAPWREGQFSKHFNWQKIEALKPFGGIRIEDNVVIHENNVENMTRDLKLA
MEVDKKDEREAESSEQVVNPWEVSAKDGGKIDYDKLIDKFGCQRLDESLIDRVQRLTSRQPHVFLRRSVFFAHRDFNEILDAYERGDKFYLYTGRGPSSEALHLGHLIPFMFTKYLQEAFKVPLVIQLTDDEKSIWKNLSVEESQRLARENAKDIIACGFDVTKTFIFSDFDYVGGAFYKNMVKVGKCVTLNKAMGIFGFSGEDPIAKLSFPPVQAVPSFPSSFPHLFPGKDNLRCLIPCAIDQDPYFRMTRDVAPRLGYSKPALIESTFFPALQGENGKMSASDPNSAIYVTDSAKDIKNKINRYAFSGGQDSIEKHRELGANLEVDIPVKYLSFFLEDDSELEHIKKEYGEGRMLTGEVKKRLTEVLTEIVERHRRARAAVTDEMVDAFMAVRPLPSMFE
MEVHAADQYLVAPGEADLLEVHARLAGTGLFPPFPPVELPGGVGGLVARGGFAQTFFFPAEVLGLTFRTPKGRRVRAGGVVVKNVQGYDLVRLFVGSFGLLGRAEEVVLRLRPGRAQAFLRRPFSGSFPRLVPTPRFLFALEDEEGPWLYAYHFGHPKEVERFREAFGGEEARPLDLRPRFPRGLGLGEGPLWDLRFRYQDGGASPPPPPAFLRLARVL
MEVKLPELGDNVTQATVVGVLVKEGDRVEPGQPLLELETDKAVVEVPAEAGGVVKRVLVKVGDEVRPGQPFLELAEAEGGAEAPPLKAEERPEAPAPKAEEAPRPAPKEAPPAPQEAPSERRLIPAAPSIRRLARELGVDLTRLRGTGLAGRITEEDVRRAAGLGEAAPAALPAAPAPRLPDFTKWGPVRREPMSGVRKATVRSMSQAWAQVPMVTHFDEADVTELEALRKQYAKKAEEKGFRLTLTAFLLKALALTLKAFPKFNASLDVEAQEIVYKDYIHIGVAVDTPHGLLVPVIRDVDRKGVLRLAEELQEISQRARERKLSPEEMQGATFSLSNLGGIGGTGFTPIVNWPEVAILGVSRSQMKPLWDPGKEAFVPRLVMPFSLTYDHRLIDGADAARFCRHLAGILEDPLGLALA
MEYKDATHTTATQTVHYVNQDGDKVFDDDTSQTLNYERGVTIDEVTGEVISYGDWTPVDGDEFGSVTSPDKPGYAVDTKVVSGEKPEITNGKDGKVNDVEVTVTYTASNEDATLEHHHHHH
MFCLETTFLIDLLRGRDEALKFYAKIRDSKLYTTSISAWELLRGPKLIGKDKEFEVAVELLESLDVLPFSFNSAKIAVEIEKDLREKGMEVNLIDVLIASVAMEHSLKLVTRDEHFSRIKGLEVERYRPE

Soluble on expression in E. coli, not soluble:
MESESIVYGCIRDWPGDSMERRMRRAANRRVLDSLPGGEAWPFLGREMFSRCEQSGAGLYQTQIIHFGASYQAIEYEWSLWVEQFEALLRRLYWASAVVHLETEVNGSHTFRWESERGFHTPQESDLQVRCAWEREGGRR
MESKKRSSDKKSTEVDSMSDKESLYVSASDQPPAEITIKLEKDTKRKITIISEVENPKRARRGSADLRRQAIVNSAIRSAQSTASSRSRSRSRSRSRSTMNQQIRLARTRSASGGKLRRSRSARRRSPSSSASRSRSRSTSRTRAQSIPIRYRDRPEKIEKPIQPLPPLRLPTHLTKKSSVGSKKLPPPDCINLPSPLFILTEQQVIGASEKKTVQFVTKVLLTSKKLSLDDRKLLFAEMVEAEYVGTSRSSTDLNKSSDDEPEEEFATKIHYSSKGIYIHTVQNVRKIRSGKTSSITEEKSYANICKTKISGDHGKSTEGFLNVQCSETISVVDQKYIRSEEFKIGLTGVNVSGNVSINSSKTTFDPTKTITFSEDLMFDSKNIGITIRHSSVAEMKEMWHHEMGSFGEETSEYRELKFFFDEKKKDDNKTVGKSVVSILQGTKPSAPPASTSSSSKNSSSINSPKTPNISGSSRRSRSRAKRHKALQKRDSKTNRTPSPDRQSCKKDARPDQDPIKLSEIKVSEHVDSTGNETFYQSFPKATSTPKSPASSLNSSVLESKVKNSMQKTPDEGPSRRGAMSIRERSVSRNGDNEIDLDKSLSLKKPSASKNLASLLEKKEEARKTDVTSSMISSKPPTSPGTSVYMYNTGSANSTFMSAKDLHKERVAASTGPRSASKSPKGTLRVKETKVIREVRQEDGKPPEISEKKEETVKEEKVNLSERLRARSRASSPATPTLKRTFNQTDESNIVTLSAVKETHQTLEMTPIKVNSETVPSTSYGQRAFPESVQLDMLIDKKRLVLNVNFMLLAEKHPEVEILGFTFKGQKLWEKSSEWNLTSANTTSHTKTIARQASNILGDEEKKDEEQK
MESSDIASRIWLIAGPTASGKSAYALDLAERIDGEIVNADSMQIYAGLRVLTAGPSQEETARAPHHLFQIVDPALGWSVGRWLEAATQALAEIQARGKPAIVVGGTGLYFRALTHGLADVPPVPETQREISSLLYAARGETEFREILKPLDPEAEARIESGDRQRLVRAHAVAITTGKSLTAWQTDTKPALAPGSWKGLVLDPPRAELYARCDARLAVMVEQGALDEVRALETRGLDPALPALKAVGYREFAAHLRGETSLDQALDAARQETRRYAKRQLTWFRNQTPDWERIVPLEHHHHHH
METIKIGVVGLGTVGTGVVKMLQAHQEKISEITGRKLELACVVVHNLKKHEQVDLGDVQMTDQIATLLDDPSIQIMVEVMGSIHPAKEYITQALQAGKHVVTANKDLIAQYGRELVQIARENHRDLFYEASVAGGIPILRTIDNSFAADRIQRVMGIVNGTTNYIMTQM
METLTLETPEARAETRTVLHVGCGAANPAKLPGDVFPAGDWRELRLDIDPGVAPDILASITGMPMVADGSVDAVWSSHNLEHLRPHEVPLALAEFHRVLRPGGFLLATLPDLQAVALLVAQGLLEEPAYVSALGPIAPLDILYGFRPAIAEGNDFMAHRTGFTAASLARHLGAAGFAEITVQTDGRFALWARAVRPA
METPMHDEEESDSLNTSHLSDVELDDLVTTKFVEEFKNLKIADDSLEVVRDVGSPLNQALSPIERRNSDEFLLEDHPSLVRPIKDIFQRDEAMLLKNRILDASDEILKTNFMWNMFERSKKWRNTSHSSEVSLLDSLFQMVDRRPVLLHISCSRLTENDISCMIRKSLLDVAAQPRQKTVFRVTIKTEMPLKQFLGQLAMLLSTSPTIKFECAPVTALMKNLDGSMRKFYTAEVENFAEAELGLLSMSHLSPMNASARFKFTMNEKPFVTVNVGYHSNIDQCRRQKTIVIEQTVDGTVPARRVTFGFPLVSRVEEYELDEGLPFIPLRNSTKVFDLSQHFGNVQALPKVLDLKNIVFK
METSDERLAGAAAEGDRGAFALLVERHYDRIFGLSWRLTGSRTEAEDLAQDICAALPMKLRGWRGEARFTTWLYRVVVNASHDLRRRQSAHSRAAAGWGDWELARQDEIGEARAAEEWLAAAMTALPVELRDTVALVLGEEMTQAEAGAVLGLAEGTVAWRMSEVKKRLRAMALREARA
MEVEAFAHSVAPLAPRLKRVAYSILDDEEAAADVSQEALMRLWINRERLGGYDSIEAVAVTTARRIALDMLRKEGRMEPLPDDLPFSDHAPTPQGVLEQSETMRLVEAAIEALPPLQRMTFRLKEIEGYESEVIARLVGVKVEAVYTNLSRARRALRTALALQLKR
MEYKLHNGSGGLCCKGCSRQDKKLNTYDWLADIPGNAEECDMVEVQFKNTRKGYYRNSNKIKLEKGDIVAVEAAPGHDIGVVTLTGRLVPLQMKKANFKTDVEIKRIYRKAKPVDMEKFNEAKAKEHATMIRARQIALNLNLDMKIGDVEYQGDGNKAIFYYIADERVDFRQLIKVLAEAFRVRIEMKQIGARQEAGRIGGIGPCGRELCCATWMTSFVSVSTSAARFQDISLNPQKLAGQCAKLKCCLNYEVDCYVEAQKRLPSKEIELETKDGTFYFFKADILSNHVSYSTDKNFPANLVTISGKRAFEVIAMNKKGMKPDSLLEAEVKQESKKPIDLLEQESLTRFDRNRNNKDGNNGNRNKKKRKGNNDNRPQAQAESGNRPQQPQRGENENRPQPSENGNRGERGDRENRPRNNNNNNRNRGQNQGRNNENRRPERGQNQERPQNPNRPQNQERSQNQERPVNQERNQERNQERPQNRERQPKQERPQNQERPQEQGRQPNQERIPRPERNSNQEKPQNNEKPAQE
MEYRMFDIGVNLTSSQFAKDRDDVVACAFDAGVNGLLITGTNLRESQQAQKLARQYSSCWSTAGVHPHDSSQWQAATEEAIIELAAQPEVVAIGECGLDFNRNFSTPEEQERAFVAQLRIAADLNMPVFMHCRDAHERFMTLLEPWLDKLPGAVLHCFTGTREEMQACVAHGIYIGITGWVCDEPTRTGAAGTFAVDSGGKITDRNLEHHHHHH
MEYSRDSAEMMMETKRNVYSLEDNKIKRHKSSDLSFSSKERKDKLAERISALQQLVSPYGKTDTASVLLEGMQYIQFLQEQVKVLSAPYLQATPSTTEEEVEEYSLRSKGLCLVPLEYTSEVAQTNGADIWAPVKTPTSSHAFNLSSSNSPFQ
MFDKHTHTLIAQRLDQAEKQREQIRAISLDYPEITIEDAYAVQREWVRLKIAESRTLKGHKIGLTSKAMQASSQISEPDYGALLDDMFFHDGSDIPTDRFIVPRIEVELAFVLAKPLRGPNCTLFDVYNATDYVIPALELIDARCHNIDPETQRPRKVFDTISDNAANAGVILGGRPIKPDELDLRWISALMYRNGVIEETGVAAGVLNHPANGVAWLANKLAPYDVQLETGQIILGGSFTLPVPARKGDTFHVDYGNMGSISCRFV
